Measurements reported in patent US20260209362A1 (VIB VZW, published 2026).

T1: human IL-12Rβ2 expressed on cells (human, UniProt Q99665 24-862)
T1 construct: HEK293T cells transiently transfected with a human IL-12Rβ2 plasmid (Genscript OHu21785); also called hIL-12RB2
T1 sequence: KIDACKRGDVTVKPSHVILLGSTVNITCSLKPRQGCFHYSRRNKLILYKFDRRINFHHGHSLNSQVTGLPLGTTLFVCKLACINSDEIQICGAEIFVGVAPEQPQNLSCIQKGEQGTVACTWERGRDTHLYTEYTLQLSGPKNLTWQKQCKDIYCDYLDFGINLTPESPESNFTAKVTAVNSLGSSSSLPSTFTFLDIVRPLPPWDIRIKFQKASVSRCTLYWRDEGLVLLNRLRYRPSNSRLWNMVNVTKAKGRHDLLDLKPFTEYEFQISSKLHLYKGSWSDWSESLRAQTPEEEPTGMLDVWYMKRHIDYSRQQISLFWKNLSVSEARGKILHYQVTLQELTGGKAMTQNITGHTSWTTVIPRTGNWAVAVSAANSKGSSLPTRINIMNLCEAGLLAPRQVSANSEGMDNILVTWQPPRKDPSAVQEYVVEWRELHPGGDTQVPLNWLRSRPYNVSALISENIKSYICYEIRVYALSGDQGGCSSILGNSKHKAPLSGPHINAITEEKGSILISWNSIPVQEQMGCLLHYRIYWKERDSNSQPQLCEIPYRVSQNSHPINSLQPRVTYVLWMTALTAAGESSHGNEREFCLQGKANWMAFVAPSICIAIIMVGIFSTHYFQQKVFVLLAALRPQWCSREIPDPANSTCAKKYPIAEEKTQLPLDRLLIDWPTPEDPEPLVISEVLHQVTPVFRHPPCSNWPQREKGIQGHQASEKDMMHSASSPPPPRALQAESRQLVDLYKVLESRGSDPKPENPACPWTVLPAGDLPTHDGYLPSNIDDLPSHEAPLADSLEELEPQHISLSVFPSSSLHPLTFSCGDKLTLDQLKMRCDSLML

T2: biotinylated recombinant human IL-12Rβ2 (produced in-house) (human, UniProt Q99665 24-622, random biotinylated)
T2 construct: also called hIL-12RB2; hIL12RB2
T2 sequence: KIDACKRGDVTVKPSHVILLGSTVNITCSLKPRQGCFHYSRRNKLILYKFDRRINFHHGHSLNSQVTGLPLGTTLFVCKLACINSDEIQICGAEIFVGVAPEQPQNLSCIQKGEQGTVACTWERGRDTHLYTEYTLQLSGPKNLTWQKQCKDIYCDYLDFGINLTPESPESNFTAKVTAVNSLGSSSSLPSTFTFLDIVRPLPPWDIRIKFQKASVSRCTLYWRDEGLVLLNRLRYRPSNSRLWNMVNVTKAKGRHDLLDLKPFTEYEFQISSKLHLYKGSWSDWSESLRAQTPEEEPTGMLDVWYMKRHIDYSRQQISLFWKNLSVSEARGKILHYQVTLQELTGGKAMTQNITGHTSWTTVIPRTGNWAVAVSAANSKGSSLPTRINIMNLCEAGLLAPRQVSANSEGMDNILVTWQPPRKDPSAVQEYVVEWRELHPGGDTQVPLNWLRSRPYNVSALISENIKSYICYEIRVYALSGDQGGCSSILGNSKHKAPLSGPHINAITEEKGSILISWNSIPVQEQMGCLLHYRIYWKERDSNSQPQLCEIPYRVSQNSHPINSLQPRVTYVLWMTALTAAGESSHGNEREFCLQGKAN

T3: human IL-12Rβ2 expressed on cells (human, UniProt Q99665 24-862)
T3 construct: the cell lines are described by plasmid or cDNA number only; also called hIL-12RB2; HEK293T transiently transfected with human IL-12Rβ2
T3 sequence: T1 sequence

T4: biotinylated human recombinant IL-12Rβ2 (produced in-house) (human, UniProt Q99665 24-622, random biotinylated)
T4 construct: Soluble recombinant protein used for panning, ELISA and BLI; also called hIL-12RB2; hIL12RB2
T4 sequence: T2 sequence

T5: biotinylated mouse recombinant IL-12Rβ2 (produced in-house) (mouse, UniProt P97378 24-637, random biotinylated)
T5 construct: Soluble recombinant protein used for panning, ELISA and BLI; also called mIL-12RB2; mIL12RB2
T5 sequence: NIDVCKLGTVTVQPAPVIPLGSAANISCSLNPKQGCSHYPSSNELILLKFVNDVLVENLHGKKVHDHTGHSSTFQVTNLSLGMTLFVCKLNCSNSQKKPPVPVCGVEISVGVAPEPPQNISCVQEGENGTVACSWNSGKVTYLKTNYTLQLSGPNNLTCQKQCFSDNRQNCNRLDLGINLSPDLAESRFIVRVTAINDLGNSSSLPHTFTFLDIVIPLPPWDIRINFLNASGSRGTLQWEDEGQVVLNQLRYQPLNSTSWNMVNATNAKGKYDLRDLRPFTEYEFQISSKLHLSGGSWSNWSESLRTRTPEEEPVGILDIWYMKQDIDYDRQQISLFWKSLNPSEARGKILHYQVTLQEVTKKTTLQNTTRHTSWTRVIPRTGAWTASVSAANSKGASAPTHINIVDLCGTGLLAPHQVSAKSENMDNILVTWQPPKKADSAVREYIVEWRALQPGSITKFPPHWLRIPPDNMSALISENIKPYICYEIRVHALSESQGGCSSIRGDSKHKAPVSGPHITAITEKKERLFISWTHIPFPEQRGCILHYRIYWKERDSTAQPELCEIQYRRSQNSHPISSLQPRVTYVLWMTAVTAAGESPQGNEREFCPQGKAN

T6: biotinylated recombinant mouse IL-12Rβ2 (produced in-house) (mouse, UniProt P97378 24-637, random biotinylated)
T6 construct: also called mIL-12RB2; mIL12RB2
T6 sequence: T5 sequence

B1: anti-IL-12Rβ2 VHH clone 3CRHS54 (VHH, not shown: small tags and cut ends)
VHH: QVQLQESGGGLVQPGGSLRLSCTASGSIVSIYNMDWYRQAPGNEREWVASITSSGDPYYDGSAKGRFTISRDNAKMTVYLQMNSLEPEDTAVYFCKVPTEKGNYWGQGTQVTVSS
notes: tested as periplasmic extract; also called 3CRHSS4
B2: anti-IL-12Rβ2 VHH clone 3CRHS51 (VHH, not shown: small tags and cut ends)
VHH: QVQLQESGGGLVQPGGSLRLSCAASGFTFSTYAMSWVRQAPGKGLEWVSAVNSGGLSTDYADSVEGRFTISRDDAKNMLFLQMNRLKPEDTARYYCAKYEDCSDYVCDRAGYWGQGTQVTVSS
notes: tested as periplasmic extract; also called 3CRASS1
B3: anti-IL-12Rβ2 VHH clone 3CAHS124 (clone ID 20400) (VHH)
VHH: QVQLQESGGGLVQPGGSLRLSCAASGRTINAYIMGWFRQAPGKEREFVAAVSGSGGSTYYADSVKGRFTISRDNAKNTVNLQMDNLRSEDTDVYYCAATYESVYLQNPGQYDYWGQGTQVTVSS
notes: Tested as periplasmic extract; not shown: C-terminal HA tag
B4: anti-IL-12Rβ2 VHH clone 3CAHS171 (clone ID 20407) (VHH)
VHH: QVQLQESGGGLVQPGGSLRLTCVASGFPFSTHAMSWVRQPPGKGREWISAINSGGDSTDYADSVMGRFTISRDNAKNTVYLQMNSLKSEDTAAYYCAKYEDCSDYDCSSRASWGQGTQVTVSS
notes: as for B3
B5: anti-IL-12Rβ2 VHH clone 3CRHS163 (clone ID 20438) (VHH)
VHH: QVQLQESGGGLVQPGGSLRLSCTASGFAFSTYWMYWIRQSPEKGFEWVSVVNTGGDITYYADSVKGRFTISRDNAKNTLYLQMNSLKPEDTALYYCARDRTTMSYTRTYYRGGQGTQVTVSS
notes: Tested as periplasmic extract; also called 3CANS142; not shown: C-terminal HA tag
B6: anti-IL-12Rβ2 VHH clone 3CAHS41 (clone ID 20394) (VHH)
VHH: QVQLQESGGGLVQAGDSLRLSCAASGRTFDTYIVGWFRQAPGKEREFVSALSWSDDTTIRDDSLRGRFTISRDNAKNTVYLLMNSLKPEDTAVYYCAAKAKPPAATWSSYRNREWYDYWGQGTQVTVSS
notes: as for B3
B7: anti-IL-12Rβ2 VHH clone 3CAHS102 (clone ID 20399) (VHH)
VHH: QVQLQESGGGLVQPGGSLRLSCAASGSILRINLMGWYRQVPGKQRELVAEMSTGGSTTYVDSVEGRFTISRDNAKNTVYLQMNSLKPEDTAVYYCNAKAWQLGRLENDDWGQGTQVTVSS
notes: as for B3
B8: anti-IL-12Rβ2 VHH clone 3CRH25 (clone ID 20378) (VHH)
VHH: QVQLQESGGGLVQAGDSLRLSCTASGHTFSRYTTIGWFRQAPGKDREFVAAIRWSGDITDYADAVKGRFTISRDNVKNTVYLQMNSLNPEDTAVYYCARGYSEYGVLSRNRGLYAYWGQGTQVTVSS
notes: as for B3
B9: anti-IL-12Rβ2 VHH clone 3CAHS142 (clone ID 20401) (VHH)
VHH: QVQLQESGGGLVQAGESLTLSCIASGVIKDYAMGWFRQAPGKEREFVAAISWSGVSIYYADSVKGRFTISRDNAKNTVYLQMNSLEPEDTAVYYCAGTEGAYTVAGGSTFGYDMDYWGKGTQVTVSS
notes: as for B3
B10: anti-IL-12Rβ2 VHH clone 3CRHS106 (clone ID 20429) (VHH)
VHH: QVQLQESGGGLVQPGGSLRLSCKASGFTFSTYAMSWVRQAPGKGLEWVSAVNSGGLSTDYADSVEGRFTISRDDAKNMLFLQMNSLKPEDTARYYCAKYEDCSDYMCHRDRAGYWGQGTQVTVSS
notes: as for B3

What follows are binders tested against T1, human IL-12Rβ2 expressed on cells (assay: flow cytometry, P.E. VHH on HEK293T cells transiently expressing hIL-12RB2).

Row | Binder | dMFI
1 | B1 | 870
2 | B2 | 1140

These binders were tested against T2, biotinylated recombinant human IL-12Rβ2 … (assay: BLI (Octet), P.E. VHH on immobilised biotinylated hIL-12RB2).

Row | Binder | Response
3 | B1 | 0.203
4 | B2 | 0.327

These binders were tested against T3, human IL-12Rβ2 expressed on cells (assay: flow cytometry, periplasmic extract VHH-HA on HEK293T cells transiently expressing human IL-12Rβ2).

Row | Binder | % cells bound [%] | dMFI
5 | B3 | 46.3 | 1100
6 | B4 | 47.5 | 1180
7 | B5 | 43.7 | 1050
8 | B6 | 43.3 | 971
9 | B7 | 44.7 | 994
10 | B8 | 34.8 | 520
11 | B9 | 40.9 | 812
12 | B10 | 43.3 | 1010

What follows are binders tested against T2, biotinylated recombinant human IL-12Rβ2 … (assay: BLI (Octet), P.E. VHH on immobilised biotinylated hIL-12RB2, 1:1 model).

Row | Binder | koff [s⁻¹]
13 | B1 | 0.00272
14 | B2 | 0.0043

These binders were tested against T2, biotinylated recombinant human IL-12Rβ2 … (assay: ELISA, P.E. VHH on biotinylated hIL-12RB2, signal ratio to control well).

Row | Binder | ELISA hIL12RB2/control
15 | B1 | 7.85

These binders were tested against T4, biotinylated human recombinant IL-12Rβ2 … (assay: BLI (Octet Red), periplasmic extract on biotinylated human IL-12Rβ2 on streptavidin tips).

Row | Binder | Response
16 | B3 | 0.293
17 | B4 | 0.195
18 | B5 | 0.339
19 | B6 | 0.509
20 | B7 | 0.323
21 | B8 | 0.523
22 | B9 | 0.352
23 | B10 | 0.297

Each binder was assayed against T5, biotinylated mouse recombinant IL-12Rβ2 … (assay: ELISA, periplasmic extract on biotinylated mouse IL-12Rβ2).

Row | Binder | binding result
24 | B3 | no binding
25 | B4 | no binding
26 | B5 | no binding
27 | B6 | no binding
28 | B7 | no binding
29 | B8 | no binding
30 | B9 | no binding
31 | B10 | no binding

The binders below were run against T6, biotinylated recombinant mouse IL-12Rβ2 … (assay: ELISA, P.E. VHH on biotinylated mIL-12RB2, signal ratio to control well).

Row | Binder | ELISA mIL12RB2/control
32 | B1 | 1.26

The binders below were run against T5, biotinylated mouse recombinant IL-12Rβ2 … (assay: ELISA, periplasmic extract on biotinylated mouse IL-12Rβ2; signal over streptavidin control well).

Row | Binder | mIL12RB2/control (ELISA) [ratio]
33 | B3 | 1
34 | B4 | 0.96
35 | B5 | 0.93
36 | B6 | 1.35
37 | B7 | 1.02
38 | B8 | 1.04
39 | B9 | 1.07
40 | B10 | 1.03

These binders were tested against T4, biotinylated human recombinant IL-12Rβ2 … (assay: BLI (Octet Red), periplasmic extract on biotinylated human IL-12Rβ2 on streptavidin tips, 1:1 model).

Row | Binder | koff [s⁻¹]
41 | B3 | 0.00324
42 | B4 | 0.00431
43 | B5 | 0.00302
44 | B6 | 0.00441
45 | B7 | 0.00267
46 | B8 | 0.00205
47 | B9 | 0.00324
48 | B10 | 0.00355

These binders were tested against T4, biotinylated human recombinant IL-12Rβ2 … (assay: ELISA, periplasmic extract on biotinylated human IL-12Rβ2; signal over streptavidin control well).

Row | Binder | hIL12RB2/control (ELISA) [ratio]
49 | B3 | 5.67
50 | B4 | 3.27
51 | B5 | 3.58
52 | B6 | 8.77
53 | B7 | 3.54
54 | B8 | 5.16
55 | B9 | 4.98
56 | B10 | 10.2

The binders below were run against T6, biotinylated recombinant mouse IL-12Rβ2 … (assay: ELISA, P.E. VHH on biotinylated mIL-12RB2).

Row | Binder | binding result
57 | B1 | no binding
58 | B2 | no binding
